Results on one molecule are retold here after article PMC5673899, “Structural basis for receptor recognition of pollen tube attraction peptides” (Nature Communications, 2017).

Entries after “also recorded” stand apart in the source; their conditions may differ.

Assay [1] relates to prk6 knockout pollen tubes. Conditions: cited from earlier work. The text has this:
(§1) The DEFL peptide SCR9 that is involved in self-recognition in self-incompatibility induces homodimerization of its receptor SRK9 (ref. [34]).

In assay [2] the test system is prk3 deletion pollen tubes. Particulars: cited from earlier work.
Text: as §1

Assay [3] has as its system prk6 pollen tubes transformed with PRK6 N239A. Kind of assay: Gelatin-beads assay, prk6 pollen tubes transformed with N239A PRK6. In kind it is cell-based, Arabidopsis. Particulars: beads with 250 nM wild-type AtLURE1.2; 10–23 pollen tubes per assay, three assays. On the procedure: (§2) Attraction activities of mutant AtLURE1.2 peptides were examined for semi-in-vivo pollen tubes growing through cut, pollinated pistils by gelatin-beads assay and wavy assay, [20]. For the gelatin-beads assay, pollen tubes were grown on solid pollen germination medium poured into a mold made with 1-mm thick silicone rubber and cover glasses. After hand-pollination, the topside cover glass was removed and the medium was covered with hydrated silicone oil (KF-96–100CS; Shin-Etsu). Attraction of pollen tubes toward the peptide was evaluated using AtLURE1 peptide containing gelatine beads under an inverted microscope (IX71, Olympus) equipped with a micro-manipulator (Narishige). For the AtLURE1-responsive wavy assay, the purified AtLURE1.2 peptide was added to solid pollen germination medium, which was melted at 70 °C and then cooled to a certain degree. The mixture was mixed by vortexing and poured into the mold. Pollen tubes of each genotype were grown through cut styles, as mentioned above. Each peptide (25 μM in 10 mM Bis-Tris (pH 6.0) and 100 mM NaCl) was diluted to 250 nM by cultivation medium in both assays. To examine reactivity of PRK6 mutants to AtLURE1.2, constructs for PRK6 mutants, D234A, N239A, and ΔN239I240, were generated by site-directed mutagenesis from a wild-type PRK6 vector, pPZP221-pPRK6::PRK6-mRuby2 (ref. [20]). […]

Another assay deals with MIK1^LRR. Put plainly: Gel filtration assay with MIK1^LRR. In kind it is binding, Arabidopsis. Particulars: 4 °C 30 min, 10 mM Bis-Tris pH 6.0, 100 mM NaCl. The text has this:
(§3) The genes of AtPRK3 ^LRR (residues 1–241), AtPRK4 ^LRR (residues 1–277), AtPRK5 ^LRR (residues 1–279), AtPRK6 ^LRR (residues 1–262), MIK1 ^LRR (residues 1–633), MIK2 ^LRR (residues 1–707) were amplified from Arabidopsis cDNA library by PCR and cloned into pFastBac-1 vector with a C-terminal 6 × His-tag. Their identities were confirmed by sequencing. The mature form of AtLURE1.1 (residues 20–94), AtLURE1.2 (residues 20–90), AtLURE1.3 (residues 21–91), and AtLURE1.4 (residues 20–90) were cloned into pFastBac-1 vector, with a modified N-terminal hemolin signal peptide and 6 × His-SUMO tag. Point mutation constructs were generated by QuickChange Site-Directed Mutagenesis Kit (Strategene). All the proteins were expressed using the Bac-to-Bac baculovirus expression system (Invitrogen) in High Five cells at 22 °C. One liter of High Five cells (2.0 × 10^6 cells mL^−1) cultured in the medium from Expression Systems was infected with 25 ml recombinant baculovirus and the media was collected after 72 h of infection. Secreted LRR proteins were purified using Ni-NTA (Novagen) and size-exclusion chromatography (Hiload 200, GE Healthcare) in buffer containing 10 mM Bis-Tris pH 6.0 and 100 mM NaCl. The His-SUMO tag of the AtLURE proteins was removed by Prescission Protease at 4 °C overnight in buffer containing 25 mM Tris pH 8.0 and 150 mM NaCl. […]
For orientation: Size exclusion chromatography separates by hydrodynamic size, large species first.

The test system of the next assay is AtPRK6^LRR. Kind of assay: Gel filtration assay with AtPRK6^LRR. The format is binding, Arabidopsis thaliana.
Text: as §3

The subject of assay [4] is prk6 pollen tubes transformed with PRK6 N239A. Put plainly: Wavy assay, prk6 pollen tubes transformed with N239A PRK6. In kind it is cell-based, Arabidopsis. Conditions: 250 nM wild-type AtLURE1.2 in medium. On the procedure:
as §2, with “assays.” for “assays. To examine reactivity of PRK6 mutants to AtLURE1.2, constructs for PRK6 mutants, D234A, N239A, and ΔN239I240, were generated by site-directed mutagenesis from a wild-type PRK6 vector, pPZP221-pPRK6::PRK6-mRuby2 (ref. [20]).”
pollen tubes. Fluorescence is from mRuby2 fused to the C-terminal of PRK6 receptors, showing that all of mutant PRK6 receptors localize normally to the plasma membrane of the pollen tube tip. […]

The subject of another assay is AtPRK6^LRR D234A. Kind of assay: In vitro pull-down with AtPRK6^LRR mutant D234A. In kind it is binding, Arabidopsis thaliana. Particulars: wild-type AtLURE1.2.
Text: as §3, with “NaCl.” for “NaCl. The His-SUMO tag of the AtLURE proteins was removed by Prescission Protease at 4 °C overnight in buffer containing 25 mM Tris pH 8.0 and 150 mM NaCl.”
The purified His-tagged ectodomains of AtPRK proteins and MIK1, 2 were used to pull-down the AtLURE1.2 peptide. […] All the eluted samples were analyzed by SDS-PAGE and visualized by Coomassie blue staining. […]

B1: AtLURE1.2: mature form of AtLURE1.2 (residues 20–90), defensin-like cysteine-rich peptide expressed in insect cells (protein)
chain: TLINGSSDEERTYSFSPTTSPFDPRSLNQELKIGRIGYCFDCARACMRRGKYIRTCSFERKLCRCSISDIK
modifications: left off: His6, N-terminal, cleaved | SUMO, N-terminal, cleaved
notes: mature form of AtLURE1.2 (residues 20–90), defensin-like cysteine-rich peptide expressed in insect cells
As to B1, the “pollen tube reorientation toward AtLURE1.2” value in assay [1] is “completely abolished”. For the same molecule, the “responsiveness of pollen tubes to AtLURE1.2” value in assay [2] was “little effect”. The “pollen tube attraction / reactivity” value in assay [3] is listed as “comparable reactivity to the wild-type PRK6”. In the assay on MIK1^LRR, the “interaction in gel filtration” value is “no interaction; also recorded: none of the purified AtPRK3^LRR, MIK1^LRR or MIK2^LRR proteins showed detectable interaction”. Further, the “effect on monomeric state of AtPRK6^LRR in solution” value in the assay on AtPRK6^LRR (gel filtration) was “did not alter the monomeric status; also recorded: does not alter the monomeric state”. In addition, in the assay on AtPRK6^LRR (purified proteins mixed at molar ratio about 1:3, 4 °C 30 min, 10 mM Bis-Tris pH 6.0, 100 mM NaCl), the “complex formation in gel filtration” value is given as “formed a stable complex”. The “wavy and branched pollen tube behavior” value in assay [4] is “severe wavy and branched behavior; also recorded: comparable reactivity to the wild-type PRK6”. In the assay on AtPRK6^LRR D234A, the “interaction in pull-down assay” value was “greatly compromised; also recorded: significantly compromised”.
